Reference: article PMC9602519, “A Novel Cryptic Clostridial Peptide That Kills Bacteria by a Cell Membrane Permeabilization Mechanism” (Microbiology Spectrum, 2022)

Molecular target: the molecule itself
Experiment: AUC; sedimentation velocity, 50,000 rpm, 20°C, absorbance at 230 nm; 10 mM sodium bicarbonate, 5 mM sodium phosphate (pH 6.8), 100 mM NaCl; with 20 mM DPC detergent (membrane mimic); c(s) distribution in SEDFIT

B1: Intestinalin (P30) (peptide)
peptide: KNLLRRIRRKLRNKFSRSDVIKTPKIVEVN
notes: N-terminal region of the LysC autolysin of Clostridium intestinale URNW
stoichiometry N: 3
